Measured values published in article PMC3973309.

T1: BfiI-C (C-terminal DNA-binding domain) (UniProt Q9F4C9 193-358)
T1 sequence: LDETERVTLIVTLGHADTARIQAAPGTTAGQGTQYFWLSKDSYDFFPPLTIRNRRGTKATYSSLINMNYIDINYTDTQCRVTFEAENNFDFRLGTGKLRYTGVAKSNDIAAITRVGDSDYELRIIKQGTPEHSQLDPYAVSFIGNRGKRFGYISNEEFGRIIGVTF

T2: BfiI N245A (UniProt Q9F4C9 1-358, N245A)
T2 sequence: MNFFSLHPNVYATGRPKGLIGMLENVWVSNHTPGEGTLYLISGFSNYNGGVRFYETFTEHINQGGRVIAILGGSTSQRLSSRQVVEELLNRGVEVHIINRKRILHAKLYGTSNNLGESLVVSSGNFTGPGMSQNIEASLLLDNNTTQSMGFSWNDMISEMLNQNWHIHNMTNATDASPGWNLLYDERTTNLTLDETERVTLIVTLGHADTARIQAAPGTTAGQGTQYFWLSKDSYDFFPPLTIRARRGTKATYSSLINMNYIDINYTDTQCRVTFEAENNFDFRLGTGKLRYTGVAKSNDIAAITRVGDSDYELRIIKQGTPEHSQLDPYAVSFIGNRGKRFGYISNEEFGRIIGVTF

T3: BfiI R291A (UniProt Q9F4C9 1-358, R291A)
T3 sequence: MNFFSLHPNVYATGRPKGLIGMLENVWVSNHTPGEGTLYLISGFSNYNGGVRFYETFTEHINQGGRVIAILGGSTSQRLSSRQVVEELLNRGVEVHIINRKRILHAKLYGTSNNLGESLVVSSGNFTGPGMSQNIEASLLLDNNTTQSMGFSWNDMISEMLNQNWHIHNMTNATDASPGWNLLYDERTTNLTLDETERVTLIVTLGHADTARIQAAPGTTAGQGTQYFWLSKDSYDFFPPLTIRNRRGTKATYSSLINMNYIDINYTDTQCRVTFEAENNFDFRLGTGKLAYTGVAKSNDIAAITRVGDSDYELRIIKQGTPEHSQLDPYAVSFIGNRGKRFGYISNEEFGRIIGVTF

T4: BfiI R272A (UniProt Q9F4C9 1-358, R272A)
T4 sequence: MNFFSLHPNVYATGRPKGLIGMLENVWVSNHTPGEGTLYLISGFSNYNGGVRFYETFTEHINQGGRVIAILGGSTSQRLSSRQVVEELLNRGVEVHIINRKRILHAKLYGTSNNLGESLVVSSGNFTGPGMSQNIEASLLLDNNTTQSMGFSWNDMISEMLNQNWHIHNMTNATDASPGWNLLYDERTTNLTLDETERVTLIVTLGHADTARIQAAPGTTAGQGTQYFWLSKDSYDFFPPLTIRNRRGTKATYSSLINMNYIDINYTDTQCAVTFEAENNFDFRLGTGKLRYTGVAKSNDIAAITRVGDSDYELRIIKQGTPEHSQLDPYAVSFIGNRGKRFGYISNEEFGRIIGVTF

T5: BfiI W229A (UniProt Q9F4C9 1-358, W229A)
T5 sequence: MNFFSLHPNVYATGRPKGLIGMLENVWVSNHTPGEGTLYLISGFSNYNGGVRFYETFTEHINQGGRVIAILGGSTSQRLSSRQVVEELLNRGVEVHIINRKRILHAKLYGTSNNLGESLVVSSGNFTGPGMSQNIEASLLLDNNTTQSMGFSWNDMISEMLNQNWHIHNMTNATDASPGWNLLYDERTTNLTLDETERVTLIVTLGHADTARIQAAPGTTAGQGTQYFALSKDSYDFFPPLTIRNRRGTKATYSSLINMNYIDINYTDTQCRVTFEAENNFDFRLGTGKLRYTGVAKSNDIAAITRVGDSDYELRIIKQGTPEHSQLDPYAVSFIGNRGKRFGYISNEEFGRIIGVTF

T6: BfiI R212A (UniProt Q9F4C9 1-358, R212A)
T6 sequence: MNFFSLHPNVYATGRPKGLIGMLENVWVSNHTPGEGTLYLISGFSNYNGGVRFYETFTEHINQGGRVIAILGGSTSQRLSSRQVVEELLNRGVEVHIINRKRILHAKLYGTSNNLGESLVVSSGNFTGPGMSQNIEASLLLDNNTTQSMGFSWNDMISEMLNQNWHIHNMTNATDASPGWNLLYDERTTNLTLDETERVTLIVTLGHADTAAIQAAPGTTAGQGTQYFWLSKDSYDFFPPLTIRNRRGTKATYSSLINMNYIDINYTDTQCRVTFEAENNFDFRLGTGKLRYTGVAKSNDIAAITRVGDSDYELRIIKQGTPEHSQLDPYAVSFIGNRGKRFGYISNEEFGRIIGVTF

T7: BfiI T225A (UniProt Q9F4C9 1-358, T225A)
T7 sequence: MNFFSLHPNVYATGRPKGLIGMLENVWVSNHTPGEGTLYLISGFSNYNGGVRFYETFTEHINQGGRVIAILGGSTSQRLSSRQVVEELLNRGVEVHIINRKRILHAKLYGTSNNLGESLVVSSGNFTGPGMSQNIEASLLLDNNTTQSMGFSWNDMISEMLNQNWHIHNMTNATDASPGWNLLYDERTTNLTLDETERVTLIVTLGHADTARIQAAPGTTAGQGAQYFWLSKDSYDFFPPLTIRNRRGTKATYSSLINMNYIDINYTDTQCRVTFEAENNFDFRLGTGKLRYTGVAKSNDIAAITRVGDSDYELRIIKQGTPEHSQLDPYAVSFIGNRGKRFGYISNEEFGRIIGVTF

T8: BfiI Y227A (UniProt Q9F4C9 1-358, Y227A)
T8 sequence: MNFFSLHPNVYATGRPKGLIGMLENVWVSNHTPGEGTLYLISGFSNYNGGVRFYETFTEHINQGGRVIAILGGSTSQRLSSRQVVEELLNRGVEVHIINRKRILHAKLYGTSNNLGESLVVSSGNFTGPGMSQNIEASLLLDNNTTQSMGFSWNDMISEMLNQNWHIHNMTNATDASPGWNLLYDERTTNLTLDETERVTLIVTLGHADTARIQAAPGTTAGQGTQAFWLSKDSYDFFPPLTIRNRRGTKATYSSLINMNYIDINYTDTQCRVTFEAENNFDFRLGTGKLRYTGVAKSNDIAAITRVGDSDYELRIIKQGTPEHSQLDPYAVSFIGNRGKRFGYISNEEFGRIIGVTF

T9: BfiI E276A (UniProt Q9F4C9 1-358, E276A)
T9 sequence: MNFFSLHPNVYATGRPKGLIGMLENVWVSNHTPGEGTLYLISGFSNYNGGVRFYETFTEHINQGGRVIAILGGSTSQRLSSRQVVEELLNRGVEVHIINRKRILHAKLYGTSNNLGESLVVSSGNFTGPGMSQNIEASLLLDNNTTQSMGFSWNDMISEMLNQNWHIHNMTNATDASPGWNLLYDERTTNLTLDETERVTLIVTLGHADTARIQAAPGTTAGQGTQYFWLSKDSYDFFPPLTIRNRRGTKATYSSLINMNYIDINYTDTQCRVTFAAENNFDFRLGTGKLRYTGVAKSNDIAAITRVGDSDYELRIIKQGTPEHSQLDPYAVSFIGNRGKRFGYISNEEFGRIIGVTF

T10: BfiI Q223A (UniProt Q9F4C9 1-358, Q223A)
T10 sequence: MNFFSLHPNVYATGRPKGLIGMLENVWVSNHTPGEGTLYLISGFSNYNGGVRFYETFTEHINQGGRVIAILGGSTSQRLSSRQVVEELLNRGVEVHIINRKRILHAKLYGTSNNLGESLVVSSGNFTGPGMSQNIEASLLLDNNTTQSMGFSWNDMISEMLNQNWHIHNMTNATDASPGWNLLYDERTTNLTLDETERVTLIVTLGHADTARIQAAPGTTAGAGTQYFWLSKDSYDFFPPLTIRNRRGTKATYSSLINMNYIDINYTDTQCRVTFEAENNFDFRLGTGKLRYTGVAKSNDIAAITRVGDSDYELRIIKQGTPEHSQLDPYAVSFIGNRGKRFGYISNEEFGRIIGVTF

T11: BfiI K250A (UniProt Q9F4C9 1-358, K250A)
T11 sequence: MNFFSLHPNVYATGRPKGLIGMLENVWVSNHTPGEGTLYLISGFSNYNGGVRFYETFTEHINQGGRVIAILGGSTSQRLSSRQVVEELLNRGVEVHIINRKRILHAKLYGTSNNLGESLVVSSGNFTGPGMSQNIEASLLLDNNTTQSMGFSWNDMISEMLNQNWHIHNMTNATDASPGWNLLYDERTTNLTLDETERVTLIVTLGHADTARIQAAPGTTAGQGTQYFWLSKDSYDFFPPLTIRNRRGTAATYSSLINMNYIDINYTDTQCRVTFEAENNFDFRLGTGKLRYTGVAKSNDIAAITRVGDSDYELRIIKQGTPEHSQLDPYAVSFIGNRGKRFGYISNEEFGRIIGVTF

T12: BfiI Q226A (UniProt Q9F4C9 1-358, Q226A)
T12 sequence: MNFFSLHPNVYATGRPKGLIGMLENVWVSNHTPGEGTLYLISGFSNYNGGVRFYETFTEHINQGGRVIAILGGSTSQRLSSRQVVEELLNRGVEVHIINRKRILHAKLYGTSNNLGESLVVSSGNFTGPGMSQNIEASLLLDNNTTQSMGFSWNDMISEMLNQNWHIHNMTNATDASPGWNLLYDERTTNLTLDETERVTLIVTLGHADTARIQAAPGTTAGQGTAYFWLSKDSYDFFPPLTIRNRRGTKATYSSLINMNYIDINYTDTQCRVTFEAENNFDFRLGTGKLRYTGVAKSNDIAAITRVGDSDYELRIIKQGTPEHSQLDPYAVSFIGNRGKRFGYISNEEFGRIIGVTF

B1: 12/12 (dsDNA)
DNA 1: AGCACTGGGTCG
DNA 2: CGACCCAGTGCT
B2: 16SP (dsDNA)
DNA 1: AGCGTAGCACTGGGCT
DNA 2: AGCCCAGTGCTACGCT

How the values were obtained:
[1] = target: T1, BfiI-C (C-terminal DNA-binding domain); assay: X-ray crystallography
BfiI N245A = target: T2, BfiI N245A; assay: EMSA
BfiI R291A = target: T3, BfiI R291A; assay: EMSA
BfiI R272A = target: T4, BfiI R272A; assay: EMSA
BfiI W229A = target: T5, BfiI W229A; assay: EMSA
BfiI R212A = target: T6, BfiI R212A; assay: EMSA
BfiI T225A = target: T7, BfiI T225A; assay: EMSA
BfiI Y227A = target: T8, BfiI Y227A; assay: EMSA
BfiI E276A = target: T9, BfiI E276A; assay: EMSA
BfiI Q223A = target: T10, BfiI Q223A; assay: EMSA
BfiI K250A = target: T11, BfiI K250A; assay: EMSA
BfiI Q226A = target: T12, BfiI Q226A; assay: EMSA

Row | Binder | binding result [1] | binding signal (BfiI N245A) | binding signal (BfiI R291A) | binding signal (BfiI R272A) | binding signal (BfiI W229A) | binding signal (BfiI R212A) | binding signal (BfiI T225A) | binding signal (BfiI Y227A) | binding signal (BfiI E276A) | binding signal (BfiI Q223A) | binding signal (BfiI K250A) | binding signal (BfiI Q226A)
1 | B1 | binds |  |  |  |  |  |  |  |  |  |  | 
2 | B2 |  | 100 % of WT KA | 2 % of WT KA | 1 % of WT KA | 1 % of WT KA | 2 % of WT KA | 10 % of WT KA | 5 % of WT KA | 10 % of WT KA | 100 % of WT KA | 2 % of WT KA | 50 % of WT KA
